Assay [1] deals with T cell receptor Vβ8.3 on murine T cells (mouse). Nature of the assay: cell-based or functional assay.
The target of assay [2] is T cell receptor Vβ11 on murine tumor-draining lymph node T cells (mouse). Nature of the assay: cell-based or functional assay.
For assay [3], the target named is T cell receptor Vβ6 on murine tumor-draining lymph node T cells (mouse). In words: cell-based or functional assay.
Assay [4] concerns the target T cell receptor Vβ5.1, 5.2 on murine tumor-draining lymph node T cells (mouse). Nature of the assay: cell-based or functional assay.
Assay [5] has as its target T cell receptor Vβ12 on murine tumor-draining lymph node T cells (mouse). In words: cell-based or functional assay.
The target of assay [6] is T cell receptor Vβ14 on murine tumor-draining lymph node T cells (mouse). Nature of the assay: cell-based or functional assay.
Assay [7] addresses T cell receptor Vβ2 on murine tumor-draining lymph node T cells (mouse). Nature of the assay: cell-based or functional assay.
Assay [8] concerns the target T cell receptor Vβ13 on murine tumor-draining lymph node T cells (mouse). Nature of the assay: cell-based or functional assay.
Assay [9] concerns the target T cell receptor Vβ8.1 on murine T cells (mouse). In words: cell-based or functional assay.
The target of assay [10] is T cell receptor Vβ3 on murine T cells (mouse). Nature of the assay: cell-based or functional assay.
Assay [11] has as its target T cell receptor Vβ7 on murine tumor-draining lymph node T cells (mouse). In words: cell-based or functional assay.
Assay [12] deals with T cell receptor Vβ8.2 on murine T cells (mouse). In words: cell-based or functional assay.
Assay [13] addresses T cell receptor Vβ9 on murine tumor-draining lymph node T cells (mouse). In words: cell-based or functional assay.
The target of assay [14] is T cell receptor Vβ17 on murine tumor-draining lymph node T cells (mouse). In words: cell-based or functional assay.
On the set-up of assay [15]: species or system New Zealand white rabbits. Conditions: rabbit, in vivo.
Details of assay [16]: species or system baboons. Conditions: in vivo, sc.

We go through 3 compounds from US6340461B1 (priority 1996, dated 2002).

Bounds are passed on as bounds.

Regarding “staphylococcal enterotoxin B (SEB) (from UniProt P01552 28-266)”, the % of Total T Cells (Vβ use of tumor-draining LN T cells stimulated with SEB) in [1] stood at 19.8%; in [2], 2.9%; in [3], 0%; in [4] it was 1.2%; in [5], 0%; in assay [6], 0%. In addition, the % of Total T Cells (Vβ use of tumor-draining LN T cells stimulated with SEB) in assay [7] was 0%; in assay [8], less than 1%; in [9] it was 4.8%; in assay [10] it was 32.5%; in assay [11], less than 1%; in assay [12], 15%. In addition, the % of Total T Cells (Vβ use of tumor-draining LN T cells stimulated with SEB) in assay [13] was 0%.

For “Staphylococcus aureus enterotoxin A (SEA) (from UniProt P0A0L2 25-257)”, the % of Total T Cells (Vβ use of tumor-draining LN T cells stimulated with SEA) was 34.3% in assay [2]; less than 1% in [3]; less than 1% in assay [4]; 7.4% in assay [5]; less than 1% in [6]; less than 1% in assay [7]. The % of Total T Cells (Vβ use of tumor-draining LN T cells stimulated with SEA) in assay [14] was 0%; in assay [8], 1.5%; in [10], 29.9%; in assay [11], less than 1%; in assay [12], 1.5%; in [13] it was 0%.

On to `CC(C)Cc1ccc(C(C)C(=O)O)cc1` (stereo not drawn) [Ibuprofen], for which the “effect on SEB induced fever and anorexia” value in [15] is “reduced febrile responses exceeding 105° F. and shortened the period of anorexia and inanition”. Moreover, the “effect on SEB induced anorexia and malaise” value in assay [16] is “abrogate some of the anorexia and malaise”.
